The values that follow are results of earlier work, collected in PMC6082625.

Read-outs that look alike come from different tables or passages of the source.

Series [1] concerns the target Hsp90 (Homo sapiens) (UniProt P07900).
For series [2], the target named is J-domain protein (DnaJ) J domain (Escherichia coli) (UniProt P08622).
For series [3], the target named is Hsp90 (Homo sapiens) (UniProt P07900). This is another data set of the same source.

Sequence of J-domain protein (DnaJ) J domain (Escherichia coli) (P08622 1-75): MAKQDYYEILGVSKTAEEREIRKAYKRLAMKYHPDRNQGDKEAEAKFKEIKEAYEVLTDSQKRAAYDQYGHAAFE
Sequence of Hsp70 (DnaK) (P0A6Y8 2-638): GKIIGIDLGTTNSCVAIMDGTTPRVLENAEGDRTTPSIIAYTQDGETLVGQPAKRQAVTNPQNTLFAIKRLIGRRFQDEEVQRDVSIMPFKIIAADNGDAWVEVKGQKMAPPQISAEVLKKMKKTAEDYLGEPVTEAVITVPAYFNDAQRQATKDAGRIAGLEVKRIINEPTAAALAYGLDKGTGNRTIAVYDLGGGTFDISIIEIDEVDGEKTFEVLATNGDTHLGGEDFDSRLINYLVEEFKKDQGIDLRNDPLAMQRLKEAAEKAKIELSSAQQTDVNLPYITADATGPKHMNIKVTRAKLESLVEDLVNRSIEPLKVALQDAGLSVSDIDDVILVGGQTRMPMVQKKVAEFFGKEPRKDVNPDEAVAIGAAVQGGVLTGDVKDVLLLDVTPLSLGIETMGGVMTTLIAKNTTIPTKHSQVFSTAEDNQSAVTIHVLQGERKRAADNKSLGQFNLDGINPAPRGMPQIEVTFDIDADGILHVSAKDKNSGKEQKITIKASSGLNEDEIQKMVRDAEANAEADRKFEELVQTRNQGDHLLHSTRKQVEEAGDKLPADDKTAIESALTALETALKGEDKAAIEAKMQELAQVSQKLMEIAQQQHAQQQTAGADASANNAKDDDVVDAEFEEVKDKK
Sequence of p23 (Q15185 whole entry): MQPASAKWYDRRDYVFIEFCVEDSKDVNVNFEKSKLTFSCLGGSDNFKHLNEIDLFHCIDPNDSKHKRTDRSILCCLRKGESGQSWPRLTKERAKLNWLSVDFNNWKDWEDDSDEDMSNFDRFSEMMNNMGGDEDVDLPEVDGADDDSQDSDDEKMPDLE
Sequence of Aha1 (O95433 whole entry): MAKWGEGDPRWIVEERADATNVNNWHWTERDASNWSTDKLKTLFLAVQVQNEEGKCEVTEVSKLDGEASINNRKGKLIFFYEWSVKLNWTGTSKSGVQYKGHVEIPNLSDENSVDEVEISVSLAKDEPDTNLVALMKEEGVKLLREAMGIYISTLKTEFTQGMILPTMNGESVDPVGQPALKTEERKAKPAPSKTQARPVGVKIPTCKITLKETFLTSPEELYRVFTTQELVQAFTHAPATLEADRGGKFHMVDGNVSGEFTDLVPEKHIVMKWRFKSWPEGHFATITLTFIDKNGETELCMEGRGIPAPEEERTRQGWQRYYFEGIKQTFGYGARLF

The term Kd denotes the free concentration of one partner at which half of the binding sites on the other are occupied at equilibrium, for simple one-to-one binding. For the substance Aha1 (from UniProt O95433), in the series with Hsp90 (Homo sapiens) [1], the Kd is 700 nM.

Take Hsp70 (DnaK) (from UniProt P0A6Y8): in series [2], the Kd is 10000 nM.

With p23 (from UniProt Q15185), in the series with Hsp90 (Homo sapiens) [3], the Kd is 1000 nM.
